B1: FAM83G(111–126) peptide displayed on M13 phage [human] / GST-tagged merlin FERM domain [human] (parent complex)
chain 1: AEPLPSLEYWPQKSDR
chain 2: FTVRIVTMDAEMEFNCEMKWKGKDLFDLVCRTLGLRETWFFGLQYTIKDTVAWLKMDKKVLDHDVSKEEPVTFHFLAKFYPENAEEELVQEITQHLFFLQVKKQILDEKIYCPPEASVLLASYAVQAKYGDYDPSVHKRGFLAQEELLPKRVINLYQMTPEMWEERITAWYAEHRGRARDEAEMEYLKIAQDLEMYGVNYFAIRNKKGTELLLGVDALGLHIYDPENRLTPKISFPWNEIRNISYSDKEFTIKPLDKKIDVFKFNSSKLRVNKLILQLCIGNHDLFMRRRK
B2: NOP53(192–207) peptide displayed on M13 phage [human] / GST-tagged merlin FERM domain [human] (parent complex)
chain 1: FYDLWASDNPLDRPLV
chain 2: B1 chain 2

Variants of B1 are the subject of one experiment. As to the kind of experiment: clonal phage ELISA; ratio of A450 on immobilized GST-merlin to A450 on GST, normalized to 100% of WT peptide; no-peptide phage control est. 29%; read off a plot. (In general: An ELISA detects its analyte on a solid surface through an enzyme-linked reagent.)
In the case of chain 1 L7K, the percent of parent is roughly 84 % binding.
The same measure, in the same setting: as for chain 1 E8A, the figure is roughly 17 % binding.
Turning to chain 1 D15A, the percent of parent is roughly 110 % binding.
Same read-out and setting: in the case of chain 1 P5K it was roughly 68 % binding; in that of chain 1 Q12A, roughly 76 % binding.
On the same count and under the same terms, in the case of chain 1 S14A it was roughly 98 % binding; in that of chain 1 S6E, roughly 88 % binding.
The same measure, in the same setting: in the case of chain 1 P11K it was roughly 19 % binding; in that of chain 1 Y9D, roughly 13 % binding; in that of chain 1 Y9K, roughly 21 % binding.
For chain 1 R16A, the percent of parent is roughly 99 % binding.
As to chain 1 K13A, the percent of parent is roughly 91 % binding.
Still for that read-out and setting: in the case of chain 1 K13D it was roughly 81 % binding.
Still for that read-out and setting: in the case of chain 1 W10K it was roughly 23 % binding; in that of chain 1 L4K, roughly 86 % binding.

Variants of B2 are the subject of a further experiment. As to the kind of experiment: clonal phage ELISA; ratio of A450 on immobilized GST-merlin to A450 on GST, normalized to 100% of WT peptide; no-peptide phage control est. 32%; read off a plot.
As to chain 1 L4K, the percent of parent was roughly 29 % binding.
The same measure, in the same setting: in the case of chain 1 N9A it was roughly 93 % binding; in that of chain 1 P14K, roughly 50 % binding.
Same read-out and setting: as for chain 1 P10K, the figure is roughly 26 % binding; as for chain 1 D12A, roughly 24 % binding.
Same read-out and setting: in the case of chain 1 S7A it was roughly 120 % binding; in that of chain 1 F1K, roughly 29 % binding.
For the variant chain 1 V16K, the percent of parent was roughly 61 % binding.
Same read-out and setting: in the case of chain 1 D3A it was roughly 29 % binding.
Still for that read-out and setting: in the case of chain 1 D3K it was roughly 33 % binding.
Take chain 1 D8K: the percent of parent was roughly 94 % binding.
On the same count and under the same terms, in the case of chain 1 D8A it was roughly 110 % binding; in that of chain 1 W5K, roughly 31 % binding; in that of chain 1 R13A, roughly 97 % binding.
Still for that read-out and setting: as for chain 1 A6K, the figure is roughly 59 % binding.
Same read-out and setting: as for chain 1 L15K, the figure is roughly 16 % binding; as for chain 1 L11K, roughly 14 % binding.
Regarding chain 1 Y2K, the percent of parent is roughly 16 % binding.

These data come from article PMC10249358 (2023).
